Measurements: publication PMC12102759

B1: RNF115 peptide 67-82 (E3 ubiquitin-protein ligase RNF115), 16-mer library wild type / MDM2 SWIB (MDM2 SWIB/MDM2 domain, residues 17-125) (parent)
chain 1: TTTHFAELWGHLDHTM
chain 2: SQIPASEQETLVRPKPLLLKLLKSVGAQKDTYTMKEVLFYLGQYIMTKRLYDEKQQHIVYCSNDLLGDLFGVPSFSVKEHRKIYTMIYRNLVVVNQQESSDSGTSVSEN
B2: ATXN2 peptide 911-926 (Ataxin-2), 16-mer library wild type / PABPC1 PABC (PABPC1 PABC domain, residues 544-623) (parent)
chain 1: KSTLNPNAKEFNPRSF
chain 2: PLTASMLASAPPQEQKQMLGERLFPLIQAMHPTLAGKITGMLLEIDNSELLHMLESPESLRSKVDEAVAVLQAHQAKEAA

Variants of: B1
Assay: proteomic peptide phage display deep mutational scan (ProP-PD DMS): M13 P8 16-mer library selected against immobilised GST-tagged bait for four days (rounds), NGS of the eluted pools per day and pseudo-replica
Details: with MDM2 SWIB (MDM2 SWIB/MDM2 domain, residues 17-125); bait immobilised on MaxiSorp plates (10 µg), library pre-cleared on GST, 2 h binding at 4 °C, five washes; one round per day, days 1-4; value from days 2 and 3; keep out of graded; scale: average fractional NGS count over selection days 2 and 3

Row | Variant | screen value
1 | chain 1 L8E | 4.72e-05
2 | chain 1 L8N | 0
3 | chain 1 L8P | 1.29e-05
4 | chain 1 L8Q | 0
5 | chain 1 L8S | 0
6 | chain 1 L12F | 0
7 | chain 1 L12K | 0
8 | chain 1 L12S | 0
9 | chain 1 L12T | 0
10 | chain 1 L12V | 1.9e-05
11 | chain 1 M16G | 4.72e-05
12 | chain 1 M16H | 4.26e-05
13 | chain 1 M16K | 0
14 | chain 1 M16R | 0.000117
15 | chain 1 M16S | 0.000115
16 | chain 1 T2F | 4.31e-05
17 | chain 1 T2N | 7.17e-05
18 | chain 1 T2W | 2.98e-05

Row | Variant | screen value
19 | chain 1 T3N | 6.02e-05
20 | chain 1 T15E | 4.41e-05
21 | chain 1 T15K | 2.45e-05
22 | chain 1 T15N | 4.79e-05
23 | chain 1 T15P | 7.64e-05
24 | chain 1 T15R | 5.55e-05
25 | chain 1 W9A | 0
26 | chain 1 W9D | 0
27 | chain 1 W9G | 0.000116
28 | chain 1 W9H | 0
29 | chain 1 W9K | 4.89e-05
30 | chain 1 W9L | 0
31 | chain 1 W9N | 0
32 | chain 1 W9P | 3.98e-05
33 | chain 1 W9Q | 0
34 | chain 1 W9T | 7.05e-05
35 | chain 1 W9Y | 0

Variants of: B2
Assay: as above
Details: with PABPC1 PABC (PABPC1 PABC domain, residues 544-623); bait immobilised on MaxiSorp plates (10 µg), library pre-cleared on GST, 2 h binding at 4 °C, five washes; one round per day, days 1-4; value from days 2 and 3; scale: average fractional NGS count over selection days 2 and 3

Row | Variant | screen value
36 | chain 1 KSTLNPNAKEFNERSF [chain 1 P13E] | 0.000246
37 | chain 1 KSTLNPNAKEFNPRFF [chain 1 S15F] | 0.000136
38 | chain 1 KSTLNPNAKEFEPRSF [chain 1 N12E] | 0.000774
39 | chain 1 KSTLNPNANEFNPRSF [chain 1 K9N] | 0.00453
40 | chain 1 KSTLNPNAKEFTPRSF [chain 1 N12T] | 0.000331
41 | chain 1 KSTLNPNAKSFNPRSF [chain 1 E10S] | 0
42 | chain 1 KSTLNPNAKEFNPRSW [chain 1 F16W] | 8.6e-05
43 | chain 1 KSTLNPNAMEFNPRSF [chain 1 K9M] | 0.0042
44 | chain 1 KSTLNPNAKEFNMRSF [chain 1 P13M] | 0
45 | chain 1 KSTLNPNATEFNPRSF [chain 1 K9T] | 0.000868
46 | chain 1 KSTLNPNAKEFGPRSF [chain 1 N12G] | 0.000277
47 | chain 1 KSILNPNAKEFNPRSF [chain 1 T3I] | 0.00112
48 | chain 1 KSTLNPNAKEFQPRSF [chain 1 N12Q] | 0.000365
49 | chain 1 KSTLNPNAKVFNPRSF [chain 1 E10V] | 0.000349
50 | chain 1 KSYLNPNAKEFNPRSF [chain 1 T3Y] | 3.57e-05
51 | chain 1 KSTLNPNAEEFNPRSF [chain 1 K9E] | 0.00113
52 | chain 1 KSTLNPNAKEFMPRSF [chain 1 N12M] | 0.00106
53 | chain 1 KSTLNPNAKEFKPRSF [chain 1 N12K] | 0.000122
54 | chain 1 KVTLNPNAKEFNPRSF [chain 1 S2V] | 0.000881
55 | chain 1 KSTLNPNADEFNPRSF [chain 1 K9D] | 0.000277
56 | chain 1 KSTLNPMAKEFNPRSF [chain 1 N7M] | 0.000289
57 | chain 1 KSVLNPNAKEFNPRSF [chain 1 T3V] | 0.00143
58 | chain 1 KSTLNPNAIEFNPRSF [chain 1 K9I] | 0.0153
59 | chain 1 KSTLNPNAKEFWPRSF [chain 1 N12W] | 0.00202
60 | chain 1 KSTLNINAKEFNPRSF [chain 1 P6I] | 0.000875

Row | Variant | screen value
61 | chain 1 KSTLNPNAKEFNPRDF [chain 1 S15D] | 0
62 | chain 1 KSTLNPNAKEFNPRSV [chain 1 F16V] | 0.000892
63 | chain 1 KSTLNPNAKEFNIRSF [chain 1 P13I] | 0.000517
64 | chain 1 KSTLNPWAKEFNPRSF [chain 1 N7W] | 0
65 | chain 1 KSTLNPYAKEFNPRSF [chain 1 N7Y] | 5.67e-05
66 | chain 1 KSTLNPNAKEFNPRLF [chain 1 S15L] | 0.00242
67 | chain 1 KSTLNPNAKEFNPRSH [chain 1 F16H] | 0.000158
68 | chain 1 KSTLNPNAKEFNPRSN [chain 1 F16N] | 0.000241
69 | chain 1 KSTLNPNAKEFNPRTF [chain 1 S15T] | 4.17e-05
70 | chain 1 KSTLNPNAKEFNPREF [chain 1 S15E] | 0.000122
71 | chain 1 KSTLNPNAKEFVPRSF [chain 1 N12V] | 0.00267
72 | chain 1 KSTLNVNAKEFNPRSF [chain 1 P6V] | 0.00101
73 | chain 1 KSTLNPNAKEFSPRSF [chain 1 N12S] | 0.000112
74 | chain 1 KSTLNPNAKEFFPRSF [chain 1 N12F] | 0.000678
75 | chain 1 KSWLNPNAKEFNPRSF [chain 1 T3W] | 0.000105
76 | chain 1 KSTLNPFAKEFNPRSF [chain 1 N7F] | 0.00073
77 | chain 1 KPTLNPNAKEFNPRSF [chain 1 S2P] | 0.00164
78 | chain 1 KFTLNPNAKEFNPRSF [chain 1 S2F] | 0.000554
79 | chain 1 KSQLNPNAKEFNPRSF [chain 1 T3Q] | 0
80 | chain 1 KSTLNYNAKEFNPRSF [chain 1 P6Y] | 0
81 | chain 1 KSTLNPNAKEFNNRSF [chain 1 P13N] | 0.000178
82 | chain 1 KSSLNPNAKEFNPRSF [chain 1 T3S] | 0
83 | chain 1 KSTLNPNAKEFNPTSF [chain 1 R14T] | 0.00309
84 | chain 1 KSFLNPNAKEFNPRSF [chain 1 T3F] | 0.000481
85 | chain 1 KITLNPNAKEFNPRSF [chain 1 S2I] | 0.000118

Row | Variant | screen value
86 | chain 1 KSTLNPNAKEFNPPSF [chain 1 R14P] | 0.00013
87 | chain 1 KSTLNPGAKEFNPRSF [chain 1 N7G] | 0
88 | chain 1 KSTLNPIAKEFNPRSF [chain 1 N7I] | 0.00577
89 | chain 1 KSTLNPNAHEFNPRSF [chain 1 K9H] | 0.00168
90 | chain 1 KATLNPNAKEFNPRSF [chain 1 S2A] | 0.000338
91 | chain 1 KSTLNPNAKEFNPRQF [chain 1 S15Q] | 0
92 | chain 1 KSTLNPNAKEFNPRWF [chain 1 S15W] | 5.73e-05
93 | chain 1 KSTLNPNAKEFNPRSM [chain 1 F16M] | 0.000149
94 | chain 1 KSTMNPNAKEFNPRSF [chain 1 L4M] | 0.000137
95 | chain 1 KSTLNPNALEFNPRSF [chain 1 K9L] | 0.00284
96 | chain 1 KNTLNPNAKEFNPRSF [chain 1 S2N] | 0
97 | chain 1 KSTLNPNAKEFNPRVF [chain 1 S15V] | 0.000546
98 | chain 1 KSTLNPNAPEFNPRSF [chain 1 K9P] | 0.000159
99 | chain 1 KSTLNPNAREFNPRSF [chain 1 K9R] | 0.00121
100 | chain 1 KSTLNPNAKEFPPRSF [chain 1 N12P] | 0
101 | chain 1 KSTLNPNAKEFNYRSF [chain 1 P13Y] | 0.000164
102 | chain 1 KSTLNPNAKEFNHRSF [chain 1 P13H] | 0
103 | chain 1 KSTLNPNAKEFNPYSF [chain 1 R14Y] | 0.000722
104 | chain 1 KSTLNPNAKEFNPRSI [chain 1 F16I] | 0.000285
105 | chain 1 KSTLNPNAKRFNPRSF [chain 1 E10R] | 0
106 | chain 1 KSTLNPNAKEFNGRSF [chain 1 P13G] | 0.00243
107 | chain 1 KSTLNPNAKEFNPRAF [chain 1 S15A] | 0.000153
108 | chain 1 KSTLNPNVKEFNPRSF [chain 1 A8V] | 0.000222
